Measurements from patent publication US20220403031A1 (WUXI BIOLOGICS IRELAND, published 2022).

Assays:
[1] = target: T1, his-tagged cynomolgus PD-L1 (Sino Biological-90251-C08H), cynoPro1.ECD.His (cynomolgus, UniProt G7PSE7 19-238); assay: SPR (ProteOn), antibody captured by anti-human IgG Fc, antigen as analyte, 1:1 model
T1 construct: extracellular domain; His tag; also called cynoPro1.ECD.His (cyno PD-L1 ECD)
Description: (§1) Antibodies binding affinities to his-tagged human PD-L1 (R&D-9049-B7), his-tagged cynomolgus PD-L1 (Sino Biological-90251-C08H) and his-tagged mouse PD-L1 (Sino Biological-50010-M08H) were detected by surface plasmon resonance (SPR) assay using the software ProteOn. Testing antibody was captured on anti-human IgG Fc antibody immobilized GLM chip (Bio-rad). The chip was rotated 90° and washed with running buffer until the baseline is stable. hPro1.ECD.His, cynoPro1.ECD.His and mPro1-ECD-His at different concentrations was injected over the sensor chip at a flow rate of 100 uL/min for an association phase of 120 s, followed by 240-800 s dissociation. The chip was regenerated by 10 mM glycine (pH 1.5) following every dissociation phase.
(§2) The sensorgrams for reference channel L1 and buffer channel A6 were subtracted from the test sensorgrams. The experimental data were fitted by 1:1 binding model. Molecular weight of 40 kDa was used to calculate the molar concentration of analyte hPro1.ECD.His (R&D), cynoPro1.ECD.His and mPro1-ECD-His.

[2] = target: T2, his-tagged mouse PD-L1 (Sino Biological-50010-M08H), mPro1-ECD-His (mouse, UniProt Q9EP73 19-239); assay: as above
T2 construct: extracellular domain; His tag; also called mPro1-ECD-His (mouse PD-L1 ECD)
T2 sequence (Q9EP73 19-239, stated change not applied): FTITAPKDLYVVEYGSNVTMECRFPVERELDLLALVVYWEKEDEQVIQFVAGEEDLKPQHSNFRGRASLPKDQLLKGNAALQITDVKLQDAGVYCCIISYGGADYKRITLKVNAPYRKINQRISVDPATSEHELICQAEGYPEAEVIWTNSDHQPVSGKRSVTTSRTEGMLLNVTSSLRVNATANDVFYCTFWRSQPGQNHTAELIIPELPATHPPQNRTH
Description: as §1, §2

[3] = target: T3, his-tagged human PD-L1 (R&D-9049-B7), hPro1.ECD.His (human, UniProt Q9NZQ7 19-238); assay: as above
T3 construct: extracellular domain; His tag; also called hPro1.ECD.His (human PD-L1 ECD); human PD-L1 ECD protein (R&D-9049-B7)
T3 sequence (Q9NZQ7 19-238): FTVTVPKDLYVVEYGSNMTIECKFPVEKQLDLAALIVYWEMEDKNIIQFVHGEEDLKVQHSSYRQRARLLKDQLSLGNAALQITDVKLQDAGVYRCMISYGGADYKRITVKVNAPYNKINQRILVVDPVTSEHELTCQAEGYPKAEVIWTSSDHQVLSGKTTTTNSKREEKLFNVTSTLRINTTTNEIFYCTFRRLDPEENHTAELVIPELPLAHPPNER
Description: as §1, §2

CD147.his = assay: non-specific binding ELISA; antigen coated at 2 ug/mL, antibody at 10 ug/ml
Description: (§3) Non-specific binding ELISA was performed in 96-well high binding plates (Nunc-Immuno Plate, Thermo Scientific). The plate was coated with various antigens (as listed in the left column of Table 11) at 2 μg/mL overnight at 4° C. After blocking with 2% BSA-PBS, 10 μg/ml antibodies were added to the plate and incubated for 2 hours. […] The HRP signal was detected by adding TMB peroxidase substrate and the reaction was stopped after 12 minutes using 2M HCl. The absorbance at 450 nm was read using a microplate reader (Molecular Device). All incubation steps were performed at room temperature. The plate was washed with PBST (0.05% Tween20-PBS) between steps.

CD40 = assay: as above
Chain of CD40 (P25942 21-193): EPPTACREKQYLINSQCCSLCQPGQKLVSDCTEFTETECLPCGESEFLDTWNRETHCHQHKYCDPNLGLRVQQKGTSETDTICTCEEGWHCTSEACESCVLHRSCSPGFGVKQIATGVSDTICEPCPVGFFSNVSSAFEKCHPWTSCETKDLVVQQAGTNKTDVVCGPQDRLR
Description: as §3

CD22.his = assay: as above
Description: as §3

VEGF.his = assay: as above
Chain of VEGF.his (P15692 whole entry): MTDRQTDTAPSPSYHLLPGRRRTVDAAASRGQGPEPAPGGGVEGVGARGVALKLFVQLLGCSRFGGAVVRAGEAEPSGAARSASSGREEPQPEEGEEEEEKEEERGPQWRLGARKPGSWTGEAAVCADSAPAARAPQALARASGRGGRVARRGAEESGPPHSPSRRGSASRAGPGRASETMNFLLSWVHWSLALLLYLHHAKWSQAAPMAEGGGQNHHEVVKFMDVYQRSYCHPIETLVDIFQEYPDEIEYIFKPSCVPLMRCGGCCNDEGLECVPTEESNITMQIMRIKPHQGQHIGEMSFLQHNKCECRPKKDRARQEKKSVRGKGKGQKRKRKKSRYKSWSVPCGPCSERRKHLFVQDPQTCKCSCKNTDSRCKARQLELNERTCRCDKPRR
Description: as §3

Factor VIII = assay: as above
Description: as §3

CTLA4.his = assay: as above
Chain of CTLA4.his (P16410 36-161): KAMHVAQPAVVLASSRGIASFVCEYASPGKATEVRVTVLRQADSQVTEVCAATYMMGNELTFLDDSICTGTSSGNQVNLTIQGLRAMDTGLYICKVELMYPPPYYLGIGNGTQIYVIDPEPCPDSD
Description: as §3

FGFR.his = assay: as above
Description: as §3

human serum Albumin = human serum Albumin (human, UniProt P02768 25-609); assay: as above
Description: as §3

W317-hPro1.his = target: T4, W317-hPro1.his; assay: as above
T4 construct: identity unknown
Description: as §3

CD3.his = assay: as above
Description: as §3

T1 sequence (G7PSE7 entry or part of it C08H C08H): as the sequence (Q9NZQ7 19-238) above, with A33T, A34S, S62N, R68Q, Q82R, F173L, T185A, T192I, H215L counted along it

Kd [1]: 0.251 nM
koff [1]: 0.000478 s⁻¹
kon [1]: 1.91e+06 M⁻¹ s⁻¹
Kd [2]: 19.4 nM
koff [2]: 0.0114 s⁻¹
kon [2]: 589000 M⁻¹ s⁻¹
Kd [3]: 0.208 nM
koff [3]: 0.000385 s⁻¹
kon [3]: 1.85e+06 M⁻¹ s⁻¹
Absorbance at 450 nm (CD147.his): 0.07
Absorbance at 450 nm (CD40): 0.25
Absorbance at 450 nm (CD22.his): 0.06
Absorbance at 450 nm (VEGF.his): 0.09
Absorbance at 450 nm (Factor VIII): 0.06
Absorbance at 450 nm (CTLA4.his): 0.08
Absorbance at 450 nm (FGFR.his): 0.14
Absorbance at 450 nm (human serum Albumin): 0.42
Absorbance at 450 nm (W317-hPro1.his): 0.06
Absorbance at 450 nm (CD3.his): 0.07
B1: AP3R2-1A3-z12-hIgG4 (Fc fusion)
chain: EVQLVESGGGLVQPGGSLRLSCAASGHFSNLAVNWFRQAPGKERELVAGILWSGGSTFYADSVKGRFTISRGNAENMLYLQMNSLRAEDTAVYYCNTGTNWGQGTLVTVSS
notes: VHH-Fc (hIgG4) fusion of the humanized VHH; also called W3156-AP3R2-1A3-z12-hIgG4; W3156 antibody; not shown: Fc of human IgG4
